Patent publication US20240279310A1
Read-outs that look alike come from different tables or passages of the source.

Experiments:
Assay in all cases: cell-based or functional assay
[1] = target: APRIL+BAFF (15 nM APRIL+10 nM BAFF) in combination
[2] = target: APRIL+BAFF (15 nM APRIL+10 nM BAFF) in combination; remark: listed apart in the source
[3] = target: recombinant human APRIL (Tonbo Biosciences) (human) (UniProt O75888)
Chain of recombinant human APRIL (Tonbo Biosciences) (human) (O75888 105-250 limits assumed): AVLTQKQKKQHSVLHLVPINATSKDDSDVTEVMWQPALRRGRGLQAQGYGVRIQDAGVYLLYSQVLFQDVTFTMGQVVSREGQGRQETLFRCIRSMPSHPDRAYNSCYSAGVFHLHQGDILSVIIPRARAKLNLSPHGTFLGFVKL

IC50 (pM) BAFF + APRIL [1] | IC50 (pM) BAFF + APRIL [2] | IC50 (pM) APRIL [3] | Binder
1390 pM |  |  | 26 TACI CRD2-Fc (TACI vTD SEQ ID NO:26, K77E/F78Y/Y102D; Fc fusion SEQ ID NO: 167) (Fc fusion) SLSCRKEQGEYYDHLLRDCISCASICGQHPKQCADFCENKLRSGSGGGGSEPKSSDKTHTCPPCPAPEAEGAPSVFLFPPKPKDTLMISRTPEVTCVVVDVSHEDPEVKFNWYVDGVEVHNAKTKPREEQYNSTYRVVSVLTVLHQDWLNGKEYKCKVSNKALPAPIEKTISKAKGQPREPQVYTLPPSRDELTKNQVSLTCLVKGFYPSDIAVEWESNGQPENNYKTTPPVLDSDGSFFLYSKLTVDKSRWQQGNVFSCSVMHEALHNHYTQKSLSLSPG
 | > 100000 pM |  | belimumab, anti-BAFF monoclonal antibody (antibody, INN chains, looked up, V domains shown) VH: QVQLQQSGAEVKKPGSSVRVSCKASGGTFNNNAINWVRQAPGQGLEWMGGIIPMFGTAKYSQNFQGRVAITADESTGTASMELSSLRSEDTAVYYCARSRDLLLFPHHALSPWGRGTMVTVSS VL: SSELTQDPAVSVALGQTVRVTCQGDSLRSYYASWYQQKPGQAPVLVIYGKNNRPSGIPDRFSGSSSGNTASLTITGAQAEDEADYYCSSRDSSGNHWVFGGGTELTVLG
7720 pM |  |  | atacicept (WT TACI-Fc sequences corresponding to atacicept, containing WT TACI 30-110; SEQ ID NO:132) (Fc fusion) AMRSCPEEQYWDPLLGTCMSCKTICNHQSQRTCAAFCRSLSCRKEQGKFYDHLLRDCISCASICGQHPKQCAYFCENKLRSEPKSSDKTHTCPPCPAPEAEGAPSVFLFPPKPKDTLMISRTPEVTCVVVDVSHEDPEVKFNWYVDGVEVHNAKTKPREEQYNSTYRVVSVLTVLHQDWLNGKEYKCKVSNKALPSSIEKTISKAKGQPREPQVYTLPPSRDELTKNQVSLTCLVKGFYPSDIAVEWESNGQPENNYKTTPPVLDSDGSFFLYSKLTVDKSRWQQGNVFSCSVMHEALHNHYTQKSLSLSPGK
 | > 100000 pM | 4900 pM | anti-APRIL mAb BION-1301 (antibody, INN chains, looked up, V domains shown) VH: QVQLVQSGAEVKKPGASVKVSCKASGYTFTDYTIHWVRQATGQGLEWMGWIYPLRGSINYAQKFQGRVTMTADKSISTVYMELSSLRSEDTAVYFCARHGAYYSNAFDYWGQGTLVTVSS VL: EIVMTQSPATLSVSPGERATLSCRASESVDNDGIRFLHWYQQKPGQAPRLLIYRASTRATGIPARFSGSGSRTEFTLTISSLQSEDFAVYYCQQSNKDPYTFGGGTKVEIK
